“And” between values parts separate entries of the source, which are not always exact repeats. Equal values may be shown once. Blank lines part the entries; values can stand above or below the binder they belong to.
Legend:
Cyno plasma sIL-6R [1] = target: T1, Cyno plasma sIL-6R (cynomolgus monkey, UniProt A0A2K5WN54 60-396); assay: plasma potency assay, cyno plasma, 2.4 nM IL6; blocked ligand IL-6
T1 construct: also called cynomolgus sIL-6R
T1 sequence: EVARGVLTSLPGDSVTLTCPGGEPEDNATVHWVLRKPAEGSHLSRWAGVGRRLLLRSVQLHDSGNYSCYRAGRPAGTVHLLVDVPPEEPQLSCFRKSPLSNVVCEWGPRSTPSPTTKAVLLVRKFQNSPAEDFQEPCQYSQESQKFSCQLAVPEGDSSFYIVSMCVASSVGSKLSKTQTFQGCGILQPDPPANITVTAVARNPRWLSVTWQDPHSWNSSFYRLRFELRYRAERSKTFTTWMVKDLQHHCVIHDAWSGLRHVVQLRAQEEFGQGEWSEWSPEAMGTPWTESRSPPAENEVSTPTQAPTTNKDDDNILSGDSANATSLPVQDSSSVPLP
Procedure: (§1) All 5 affinity matured Nanobodies and the sequence optimized Nanobody were also tested in a plasma potency assay. […] TMB was used as substrate.

Human plasma sIL-6R [2] = target: T2, Human plasma sIL-6R (human, UniProt P08887 20-355, limits assumed); assay: plasma potency assay, human plasma, 42 nM IL6; sIL-6R captured on BN-12, bound IL-6 detected; blocked ligand IL-6
T2 construct: also called plasma-derived human IL-6R
T2 sequence (looked up): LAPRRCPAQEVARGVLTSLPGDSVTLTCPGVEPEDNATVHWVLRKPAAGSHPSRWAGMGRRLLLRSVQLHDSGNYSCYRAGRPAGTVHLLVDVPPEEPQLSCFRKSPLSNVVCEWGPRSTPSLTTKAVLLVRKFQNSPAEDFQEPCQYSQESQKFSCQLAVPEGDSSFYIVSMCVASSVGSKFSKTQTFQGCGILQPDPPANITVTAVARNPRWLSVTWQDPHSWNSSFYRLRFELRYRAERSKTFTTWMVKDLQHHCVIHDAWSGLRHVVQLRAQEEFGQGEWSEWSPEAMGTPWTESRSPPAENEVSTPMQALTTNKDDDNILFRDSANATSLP

Human plasma sIL-6R [3] = target: T2, Human plasma sIL-6R; assay: plasma potency ELISA, human plasma, IL-6 at EC50 (50 ng/mL)
Human soluble IL-6R [4] = target: T3, Human soluble IL-6R (human, UniProt P08887 20-358); assay: SPR Biacore 3000, human IL-6R amine-coupled to CM5
T3 construct: Soluble recombinant form; biotinylated in some assays; also called hIL-6R; human IL-6R
T3 sequence (looked up): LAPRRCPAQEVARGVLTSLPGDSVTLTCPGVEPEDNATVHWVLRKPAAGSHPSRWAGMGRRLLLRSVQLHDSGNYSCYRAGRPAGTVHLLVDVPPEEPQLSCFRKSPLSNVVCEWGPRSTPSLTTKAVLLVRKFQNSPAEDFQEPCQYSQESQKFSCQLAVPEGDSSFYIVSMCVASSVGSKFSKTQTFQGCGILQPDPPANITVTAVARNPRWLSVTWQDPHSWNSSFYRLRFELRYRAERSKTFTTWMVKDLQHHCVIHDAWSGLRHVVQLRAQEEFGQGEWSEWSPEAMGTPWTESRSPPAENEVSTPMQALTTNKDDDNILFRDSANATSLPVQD
Procedure: Remaining reactive groups were inactivated. Nanobody binding was assessed at various concentrations ranging from 0.5 to 50 nM. Each sample was injected for 4 min at a flow rate of 45 μl/min to allow for binding to chip-bound antigen. Next, binding buffer without Nanobody was sent over the chip at the same flow rate to allow for dissociation of bound Nanobody.

Human plasma sIL-6R [5] = target: T2, Human plasma sIL-6R; assay: plasma potency ELISA, human plasma + human IL-6 50 ng/mL; sIL-6R captured on BN-12, bound IL-6 detected; blocked ligand IL-6
Human plasma sIL-6R [6] = target: T2, Human plasma sIL-6R; assay: plasma potency assay, human plasma, 2.4 nM IL6; blocked ligand IL-6
Procedure: as §1

Human soluble IL-6R [7] = target: T3, Human soluble IL-6R; assay: Alphascreen IL-6/IL-6R competition with purified Nanobody; row EC50 of the table, axis [inhibitor], M; blocked ligand IL-6
Cyno plasma sIL-6R [8] = target: T1, Cyno plasma sIL-6R; assay: plasma potency ELISA, cyno plasma + human IL-6 50 ng/mL; sIL-6R captured on BN-12, bound IL-6 detected; blocked ligand IL-6
Human soluble IL-6R [9] = target: T3, Human soluble IL-6R; assay: Biacore T100, IL-6R covalently coupled
Human soluble IL-6R [10] = target: T3, Human soluble IL-6R; assay: Biacore T100, IL-6R captured via mAb BN-12
[11] = target: T4, Human membrane IL-6R on cells (human, UniProt P08887 20-468); assay: cell-based or functional assay
T4 sequence (looked up): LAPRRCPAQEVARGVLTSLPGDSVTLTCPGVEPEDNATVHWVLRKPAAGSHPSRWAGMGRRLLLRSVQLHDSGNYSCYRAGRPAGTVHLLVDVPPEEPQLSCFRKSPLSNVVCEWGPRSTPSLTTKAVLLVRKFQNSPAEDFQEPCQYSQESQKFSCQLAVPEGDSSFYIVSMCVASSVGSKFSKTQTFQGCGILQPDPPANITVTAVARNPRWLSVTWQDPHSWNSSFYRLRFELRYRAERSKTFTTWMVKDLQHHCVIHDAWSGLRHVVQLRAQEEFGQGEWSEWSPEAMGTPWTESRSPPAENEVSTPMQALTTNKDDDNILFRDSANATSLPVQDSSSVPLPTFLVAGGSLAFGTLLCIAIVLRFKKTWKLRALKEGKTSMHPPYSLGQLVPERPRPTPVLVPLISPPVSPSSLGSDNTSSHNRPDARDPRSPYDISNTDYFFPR

Human soluble IL-6R [12] = target: T3, Human soluble IL-6R; assay: SPR (Biacore), binding curves at several concentrations of purified Nanobody on IL-6R
Human plasma sIL-6R [13] = target: T2, Human plasma sIL-6R; assay: plasma potency assay, human plasma ([IL6R]: ~0.4 nM, [IL6]: 2.4 nM printed); sIL-6R captured on BN-12, bound IL-6 detected; blocked ligand IL-6
Human soluble IL-6R [14] = target: T3, Human soluble IL-6R; assay: Biacore T100
Cyno plasma sIL-6R [15] = target: T1, Cyno plasma sIL-6R; assay: plasma potency assay, cyno plasma ([IL6R]: ~0.4 nM, [IL6]: 2.4 nM printed); sIL-6R captured on BN-12, bound IL-6 detected; blocked ligand IL-6
Cyno IL-6R = target: T5, Cyno IL-6R (cynomolgus monkey, UniProt A0A2K5WN54 60-396); assay: SPR Biacore 3000, cyno IL-6R amine-coupled to CM5
T5 construct: also called cynomolgus monkey IL-6R; recombinant cyno sIL-6R
T5 sequence: T1 sequence
Procedure: Remaining reactive groups were inactivated. […] Each sample was injected for 4 min at a flow rate of 45 μl/min to allow for binding to chip-bound antigen. Next, binding buffer without Nanobody was sent over the chip at the same flow rate to allow for dissociation of bound Nanobody.

Human plasma sIL-6R [16] = target: T2, Human plasma sIL-6R; assay: plasma potency assay, human plasma, 42 nM IL6; blocked ligand IL-6
Procedure: as §1

Human plasma sIL-6R [17] = target: T2, Human plasma sIL-6R; assay: plasma potency ELISA, human plasma, IL-6 at EC95 (885 ng/mL)
Human soluble IL-6R [18] = target: T3, Human soluble IL-6R; assay: Biacore, binding to IL-6R (parent value)
Human soluble IL-6R [19] = target: T3, Human soluble IL-6R; assay: Biacore off-rate, periplasmic extract
Human soluble IL-6R [20] = target: T3, Human soluble IL-6R; assay: Alphascreen, 100 nM Nanobody, 0.4 nM bio-IL-6R; competitor: reference Fab
Human soluble IL-6R [21] = target: T3, Human soluble IL-6R; assay: Alphascreen IL-6/IL-6R competition (IL-6R 0.3 nM, bio-IL-6 3 nM); row EC50 of the fit table, axis [competitor], M; blocked ligand IL-6
Human soluble IL-6R [22] = target: T3, Human soluble IL-6R; assay: competition for IL-6R, competitor reference Fab, summary table C-13
[23] = target: T4, Human membrane IL-6R on cells; assay: cell-based or functional assay; remark: listed apart in the source
Human soluble IL-6R [24] = target: T3, Human soluble IL-6R; assay: SPR Biacore 3000, IL-6R amine-coupled to CM5
Procedure: (§2) Nanobodies were injected at 5 different concentrations between 1 and 50 nM. Flow rate was 45 μl/min in all experiments. Association and dissociation phase were 3 and 10 min, respectively. The chip was regenerated using Glycine/HCl pH 1.5.

Human soluble IL-6R [25] = target: T3, Human soluble IL-6R; assay: summary table C-13 of Nanobody characteristics, Kd on IL-6R
Procedure: as §2

Human plasma sIL-6R [26] = target: T2, Human plasma sIL-6R; assay: plasma potency ELISA in human plasma at the EC95 of IL-6 (885 ng/mL); blocked ligand IL-6
Human soluble IL-6R [27] = target: T3, Human soluble IL-6R; assay: Alphascreen, inhibition of bio-IL-6 binding to IL-6R
Procedure: (§3) Finally streptavidin donor beads were added and after 1 hour incubator the plate was read on the Envision microplate reader.

Mouse IL-6R = target: T6, Mouse IL-6R (mouse, UniProt P22272 20-364, limits assumed); assay: ELISA: plate coated with 1 µg/ml mouse IL-6R, 500 nM Nanobody, anti-myc + anti-mouse-HRP
T6 construct: also called mouse sIL-6R
T6 sequence (looked up): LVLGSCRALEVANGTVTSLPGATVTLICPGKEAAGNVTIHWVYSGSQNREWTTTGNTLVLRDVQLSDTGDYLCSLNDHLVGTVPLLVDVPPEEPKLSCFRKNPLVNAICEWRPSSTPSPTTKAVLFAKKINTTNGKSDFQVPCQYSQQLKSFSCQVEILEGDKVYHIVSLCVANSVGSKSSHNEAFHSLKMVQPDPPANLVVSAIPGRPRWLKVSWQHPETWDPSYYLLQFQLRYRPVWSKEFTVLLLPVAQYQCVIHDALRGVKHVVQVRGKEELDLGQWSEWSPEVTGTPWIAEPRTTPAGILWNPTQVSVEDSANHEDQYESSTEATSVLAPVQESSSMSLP
Procedure: Detection was performed with anti-myc and anti-mouse-HRP as first and second antibody respectively.

Human soluble IL-6R [28] = target: T3, Human soluble IL-6R; assay: inhibition of the IL-6/IL-6R interaction, summary table C-13
Procedure: as §3

[29] = target: T4, Human membrane IL-6R on cells; assay: cell-based or functional assay; remark: listed apart in the source
[30] = target: T4, Human membrane IL-6R on cells; assay: cell-based or functional assay; remark: listed apart in the source
Human plasma sIL-6R [31] = target: T2, Human plasma sIL-6R; assay: plasma potency ELISA in human plasma at the EC50 of IL-6 (50 ng/mL); blocked ligand IL-6

- IC50 (Cyno plasma sIL-6R [1]): 0.9 nM
- IC50 (Human plasma sIL-6R [2]): 61.5 nM
- IC50 (Human plasma sIL-6R [3]): 2.61 nM
- Kd (Human soluble IL-6R [4]): 4 nM
- koff (Human soluble IL-6R [4]): 0.00235 s⁻¹
- kon (Human soluble IL-6R [4]): 600000 M⁻¹ s⁻¹
- IC50 (read off the curve) (Human plasma sIL-6R [5]): ~0.7 nM
- IC50 (Human plasma sIL-6R [6]): 1.9 nM
- IC50 (Human soluble IL-6R [7]): 0.147 nM
- IC50 (read off the curve) (Cyno plasma sIL-6R [8]): ~0.1 nM
- koff (Human soluble IL-6R [9]): 0.0038 s⁻¹
- kon (Human soluble IL-6R [10]): 1e+06 M⁻¹ s⁻¹
- IC50 values (nM), XG-1 assay [11]: 26 nM
- Kd (Human soluble IL-6R [12]): 4.3 nM
- IC50 (Human plasma sIL-6R [13]): 4.93 nM
- Kd (Human soluble IL-6R [14]): 3.8 nM
- IC50 (Cyno plasma sIL-6R [15]): 2.99 nM
- Kd (Cyno IL-6R): 12 nM
- koff (Cyno IL-6R): 0.00197 s⁻¹
- kon (Cyno IL-6R): 165000 M⁻¹ s⁻¹
- IC50 (Human plasma sIL-6R [16]): 24.8 nM
- IC50 (Human plasma sIL-6R [17]): 66.2 nM
B1: IL6R65 (VHH)
VHH: EVQLVESGGGLVQPGGSLRLSCAASGSIFKVNAMGWYRQAPGKGRELVAGIISGGSTNYADSVKGRFTISRDNAKNTLYLQMNSLRPEDTAVYYCAFVTTNSDYDLGRDYWGQGTLVTVSS
notes: also called ILR65; parent Nanobody

- Kd (Human soluble IL-6R [18]): 0.3 nM
- koff (Human soluble IL-6R [19]): 0.00015 s⁻¹
- Residual reference-Fab binding to IL-6R (%) (Human soluble IL-6R [20]): 50%
- IC50 (Human soluble IL-6R [21]): 0.18 nM
- IC50 (Human soluble IL-6R [7]): 0.0568 nM
- Ref Fab competition (%) (Human soluble IL-6R [22]): 50%
- IC50 (nM), TF1 cell proliferation [23]: 0.4 nM
- Kd (Human soluble IL-6R [24]): 0.3 nM
- koff (Human soluble IL-6R [24]): 9.42e-05 s⁻¹ and 0.00015 s⁻¹
- kon (Human soluble IL-6R [24]): 365000 M⁻¹ s⁻¹
- IC50 values (nM), XG-1 assay [11]: 0.1 nM
- Kd (Human soluble IL-6R [25]): 0.3 nM
- IC50 (read off the curve) (Human plasma sIL-6R [26]): ~0.4 nM
- IC50 (Human soluble IL-6R [27]): 0.093 nM
- binding result (Mouse IL-6R): no binding (tested: 500 nM)
- IC50 (Human soluble IL-6R [28]): 0.09 nM
- Kd (Cyno IL-6R): 171 nM
- koff (Cyno IL-6R): 0.01 s⁻¹
- kon (Cyno IL-6R): 58600 M⁻¹ s⁻¹
- IC50 (nM) + HSA, XG-1 cell proliferation [29]: 0.1 nM
- IC50 (nM), XG-1 cell proliferation [29]: 0.1 nM
- IC50 (nM) XG-1 [30]: 0.1 nM
- IC50 (read off the curve) (Human plasma sIL-6R [31]): ~0.2 nM
B2: IL6R04 (VHH)
VHH: EVQLVESGGGLVQAGGSLRLSCAASGFTFDDYDIGWFRQAPGKEREGVSGISSSDGNTYYADSVKGRFTISSDNAKNTVYLQMNSLKPEDTAVYYCAAEPPDSSWYLDGSPEFFKYWGQGTQVTVSS
notes: also called PMP32C9; not shown: C-terminal c-myc and (His)6 tags
